Numbering of substitutions follows the chain as printed. Names may count otherwise.
Experiments:
[1] = biological target: T1, rHuman Erythropoietin R/Fc Chimera, CF (R&D Systems Cat#963-ER) (human, UniProt P19235 25-250); experiment: ECL multispot (MSD), 20 nM Fab;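 further: purified Fab binding to antigens on multispot plates, read by electrochemiluminescence with a TAG-labelled detection antibody, 1 h Fab incubation at 20 °C, signal expressed relative to each well's blank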
T1 construct: Bought recombinant protein; also called EPO R; EPO R/Fc; Fc part of the bought chimera not given
T1 sequence (looked up): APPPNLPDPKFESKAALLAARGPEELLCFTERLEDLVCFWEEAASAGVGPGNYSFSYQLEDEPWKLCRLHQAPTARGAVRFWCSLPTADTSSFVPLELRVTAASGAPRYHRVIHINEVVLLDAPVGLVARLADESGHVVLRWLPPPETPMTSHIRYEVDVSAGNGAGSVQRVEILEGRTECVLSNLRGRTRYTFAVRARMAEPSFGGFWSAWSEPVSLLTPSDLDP

[2] = biological target: T2, rHuman EGF R/Fc Chimera, CF (R&D Systems Cat#344-ER) (human, UniProt P00533 25-645); experiment: ECL multispot (MSD), 20 nM Fab;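 further: purified Fab binding to antigens on multispot plates, read by electrochemiluminescence with a TAG-labelled detection antibody, 1 h Fab incubation at 20 °C, signal expressed relative to each well's blank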
T2 construct: Bought recombinant protein; also called epidermal growth factor receptor; Fc part of the bought chimera not given

[3] = biological target: T3, rHuman Notch-1/Fc Chimera, CF (R&D Systems Cat#3647-TK) (human, UniProt P46531 19-526); experiment: ECL multispot (MSD), 20 nM Fab;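 further: purified Fab binding to antigens on multispot plates, read by electrochemiluminescence with a TAG-labelled detection antibody, 1 h Fab incubation at 20 °C, signal expressed relative to each well's blank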
T3 construct: Bought recombinant protein; Fc part of the bought chimera not given

[4] = biological target: T4, rHuman P-Cadherin/Fc Chimera, CF (R&D Systems Cat#861-PC) (human, UniProt P22223 108-654); experiment: ECL multispot (MSD), 20 nM Fab;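 further: purified Fab binding to antigens on multispot plates, read by electrochemiluminescence with a TAG-labelled detection antibody, 1 h Fab incubation at 20 °C, signal expressed relative to each well's blank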
T4 construct: Bought recombinant protein; Fc part of the bought chimera not given

[5] = biological target: T5, Recombinant Human DLL4 (R&D Systems Cat#1506-D4/CF) (human, UniProt Q9NR61 27-524); experiment: ECL multispot (MSD), 20 nM Fab
T5 construct: Bought recombinant protein; also called delta-like protein 4; rHuman DLL4

[6] = biological target: T6, rHuman ErbB2/Fc Chimera, CF (R&D Systems Cat#1129-ER) (human, UniProt P04626 23-652); experiment: ECL multispot (MSD), 20 nM Fab
T6 construct: Bought recombinant protein; also called human epidermal growth factor 2 receptor; Fc part of the bought chimera not given

[7] = biological target: T7, rHuman IGF-1 sR, (IGF-1 sR), CF (R&D Systems Cat#391-GR) (human, UniProt P08069 31-932); experiment: ECL multispot (MSD), 20 nM Fab
T7 construct: Bought recombinant soluble receptor; also called insulin-like growth factor-1 soluble receptor

[8] = biological target: T8, rHuman CD44/Fc Chimera, CF (R&D Systems Cat#3660-CD) (human, UniProt P16070 21-220); experiment: ECL multispot (MSD), 20 nM Fab
T8 construct: Bought recombinant protein; Fc part of the bought chimera not given

[9] = biological target: T9, rHuman Erythropoietin R/Fc Chimera, CF (R&D Systems Cat#963-ER) (human, UniProt P19235 25-250); experiment: ECL multispot (MSD) binding assay, antigen spotted on plate, Fab 0.04 uM;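 further: purified Fab incubated 1 h at 20 °C on antigen spots, detected via TAG-labelled antibody, ECL read against each well's blank, with signal-to-blank of at least 4 scored as binder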
T9 construct: Bought recombinant protein; also called EPO R; EPO R/Fc; Fc part of the bought chimera not given
T9 sequence (looked up): T1 sequence (looked up)

[10] = biological target: T10, rHuman CD44/Fc Chimera, CF (R&D Systems Cat#3660-CD) (human, UniProt P16070 21-220); experiment: as above
T10 construct: Bought recombinant protein; Fc part of the bought chimera not given

[11] = biological target: T11, Recombinant Human DLL4 (R&D Systems Cat#1506-D4/CF) (human, UniProt Q9NR61 27-524); experiment: as above
T11 construct: Bought recombinant protein; also called delta-like protein 4; rHuman DLL4

[12] = biological target: T12, rHuman P-Cadherin/Fc Chimera, CF (R&D Systems Cat#861-PC) (human, UniProt P22223 108-654); experiment: as above
T12 construct: Bought recombinant protein; Fc part of the bought chimera not given

[13] = biological target: T13, full-length human DLL4 expressed on the surface of CHO cells (human, UniProt Q9NR61 26-685); experiment: competition, flow cytometry; 250 nM biotinylated Notch-Fc as competitor on CHO-DLL4 cells, streptavidin-PE
T13 construct: also called CHO-DLL4; DLL4-expressing CHO cells

[14] = biological target: T14, Recombinant Human DLL4 (R&D Systems Cat#1506-D4/CF) (human, UniProt Q9NR61 27-524); experiment: ELISA, DLL4 coated on plate, Fab at 100 nM, absorbance at 450 nm
T14 construct: also called delta-like protein 4; rHuman DLL4

B1: Fab VH3-23_IGHD2-21*01>3_IGHJ6*01 H100E/S108P/Y113G (EPG) Y109D & V2-13_IGLJ2*01 (Fab, V domains shown)
VH: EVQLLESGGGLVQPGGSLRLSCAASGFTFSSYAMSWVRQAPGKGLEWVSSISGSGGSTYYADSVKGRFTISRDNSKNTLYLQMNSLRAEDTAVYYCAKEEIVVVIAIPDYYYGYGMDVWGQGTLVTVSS
VL: SSELTQDPAVSVALGQTVRITCQGDSLRSYYASWYQQKPGQAPVLVIYGKNNRPSGIPDRFSGSSSGNTASLTITGAQAEDEADYYCNSRDSSGNHLVVFGGGTKLTVL
notes: Fab; NNK mutant of the EPG heavy chain; CH1 (tags) and lambda CL come from the vectors
For B1, the “ECL signal ratio (column head gives no unit)” value [1] was 2, the “ECL signal ratio (column head gives no unit)” value [2] was 1.4 and the “ECL signal ratio (column head gives no unit)” value [3] was 1.3. For the same binder, the “ECL signal ratio (column head gives no unit)” value [4] was 1.8, the “ECL signal ratio (column head gives no unit)” value [5] was 1.4 and the “ECL signal ratio (column head gives no unit)” value [6] was 1.3. The “ECL signal ratio (column head gives no unit)” value [7] was 1.4 and the “ECL signal ratio (column head gives no unit)” value [8] was 1.

B2: Fab VH3-23_IGHD2-21*01>3_IGHJ6*01 H100E/S108P/Y113G (EPG) Y109L & V2-13_IGLJ2*01 (Fab, V domains shown)
VH: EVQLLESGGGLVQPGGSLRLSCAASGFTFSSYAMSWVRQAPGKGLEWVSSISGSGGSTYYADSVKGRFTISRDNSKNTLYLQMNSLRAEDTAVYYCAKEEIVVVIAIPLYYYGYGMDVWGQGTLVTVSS
VL: B1 VL
notes: as for B1
With B2 the “ECL signal ratio (column head gives no unit)” value [1] was 22.1, the “ECL signal ratio (column head gives no unit)” value [3] was 1.9 and the “ECL signal ratio (column head gives no unit)” value [4] was 4. The “ECL signal ratio (column head gives no unit)” value [5] was 2, the “ECL signal ratio (column head gives no unit)” value [7] was 1.7 and the “ECL signal ratio (column head gives no unit)” value [8] was 1.6.

B3: Fab VH3-23_IGHD2-21*01>3_IGHJ6*01 H100E/S108P/Y113G (EPG) Y109T & V2-13_IGLJ2*01 (Fab, V domains shown)
VH: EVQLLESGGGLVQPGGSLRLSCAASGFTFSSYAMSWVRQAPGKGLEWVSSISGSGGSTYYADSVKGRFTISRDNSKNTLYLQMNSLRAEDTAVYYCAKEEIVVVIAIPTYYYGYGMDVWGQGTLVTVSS
VL: B1 VL
notes: as for B1
In the case of B3, the “ECL signal ratio (column head gives no unit)” value [1] is reported as 6, the “ECL signal ratio (column head gives no unit)” value [2] is reported as 1.4 and the “ECL signal ratio (column head gives no unit)” value [3] is reported as 1.7. For the same binder, the “ECL signal ratio (column head gives no unit)” value [4] was 2.1, the “ECL signal ratio (column head gives no unit)” value [5] was 1.5 and the “ECL signal ratio (column head gives no unit)” value [6] was 1.7. The “ECL signal ratio (column head gives no unit)” value [7] was 1.3 and the “ECL signal ratio (column head gives no unit)” value [8] was 1.1.

B4: Fab VH3-23_IGHD2-21*01>3_IGHJ6*01 H100E/S108P/Y113G (EPG) Y109H & V2-13_IGLJ2*01 (Fab, V domains shown)
VH: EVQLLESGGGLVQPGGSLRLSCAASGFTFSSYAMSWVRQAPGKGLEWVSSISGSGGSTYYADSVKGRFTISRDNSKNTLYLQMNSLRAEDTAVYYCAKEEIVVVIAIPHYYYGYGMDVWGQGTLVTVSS
VL: B1 VL
notes: as for B1
With B4 the “ECL signal ratio (column head gives no unit)” value [1] was 18.3, the “ECL signal ratio (column head gives no unit)” value [2] was 1.4 and the “ECL signal ratio (column head gives no unit)” value [3] was 1.2. For the same binder, the “ECL signal ratio (column head gives no unit)” value [4] was 3.9, the “ECL signal ratio (column head gives no unit)” value [5] was 1.4 and the “ECL signal ratio (column head gives no unit)” value [6] was 1.7. The “ECL signal ratio (column head gives no unit)” value [7] was 1.2 and the “ECL signal ratio (column head gives no unit)” value [8] was 1.1.

B5: Fab VH3-23_IGHD2-21*01>3_IGHJ6*01 H100E/S108P/Y113G (EPG) Y109Q & V2-13_IGLJ2*01 (Fab, V domains shown)
VH: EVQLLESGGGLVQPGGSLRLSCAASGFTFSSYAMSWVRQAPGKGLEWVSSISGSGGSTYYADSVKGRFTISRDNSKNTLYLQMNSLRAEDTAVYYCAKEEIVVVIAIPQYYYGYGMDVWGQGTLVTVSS
VL: B1 VL
notes: as for B1
With B5 the “ECL signal ratio (column head gives no unit)” value [1] was 3.1, the “ECL signal ratio (column head gives no unit)” value [2] was 1.7 and the “ECL signal ratio (column head gives no unit)” value [3] was 1.3. For the same binder, the “ECL signal ratio (column head gives no unit)” value [4] was 2.2, the “ECL signal ratio (column head gives no unit)” value [5] was 1.2 and the “ECL signal ratio (column head gives no unit)” value [6] was 1.3. For the same binder, the “ECL signal ratio (column head gives no unit)” value [7] was 1.1 and the “ECL signal ratio (column head gives no unit)” value [8] was 1.3.

B6: Fab VH5-51_IGHD5-18*01>3_IGHJ4*01 G100K/G104T (H:KT) & V3-4_IGLJ1*01 G95A (Fab, V domains shown)
VH: EVQLVQSGAEVKKPGESLKISCKGSGYSFTSYWIGWVRQMPGKGLEWMGIIYPGDSDTRYSPSFQGQVTISADKSISTAYLQWSSLKASDTAMYYCARRKYSYTYDYFDYWGQGTLVTVSS
VL: QTVVTQEPSFSVSPGGTVTLTCGLSSGSVSTSYYPSWYQQTPGQAPRTLIYSTNTRSSGVPDRFSGSILGNKAALTITGAQADDESDYYCVLYMASGISYVFGTGTKVTVL
notes: Fab; Expressed from Plasmid A (CH1, His6 and Flag tags) and Plasmid E (lambda CL); also called KT & G95A
B6 was tested, and the ECL signal [9] was 637, the ECL signal [10] was 657 and the ECL signal [11] was 10400. It also gave an ECL signal [12] of 345.

B7: Fab VH5-51_IGHD5-18*01>3_IGHJ4*01 G100K/G104T G24T/S28R/G35V & V3-4_IGLJ1*01 (Fab, V domains shown)
VH: B6 VH with G24T, S28R, G35V
VL: B6 VL with A95G
notes: Fab; Constant parts come from Plasmid A (CH1, His6, Flag) and Plasmid E (lambda CL); also called H:KT TRV & L:wt; H:KT TRV & V3-4_IGLJ1*01
B7 was tested, and the “signal of biotinylated Notch-Fc bound to CHO-DLL4 cells at 2 nM Fab (read-out not given)” value [13] was 448 and the “signal of biotinylated Notch-Fc bound to CHO-DLL4 cells at 10 nM Fab (read-out not given)” value [13] was 244.

B8: Fab VH5-51_IGHD5-18*01>3_IGHJ4*01 G100K/G104T G24T/S28R/G35V (H:KT TRV) & V3-4_IGLJ1*01 S96L (Fab, V domains shown)
VH: B6 VH with G24T, S28R, G35V
VL: B6 VL with A95G, S96L
notes: Tested as Fab expressed in E. coli
B8 was tested, and the “ELISA Signal-blank (100 nM Fab)” value [14] was 0.355.

B9: Fab VH5-51_IGHD5-18*01>3_IGHJ4*01 G100K/G104T G24T/S28R/G35V (H:KT TRV) & V3-4_IGLJ1*01 S96P (Fab, V domains shown)
VH: B6 VH with G24T, S28R, G35V
VL: B6 VL with A95G, S96P
notes: as for B8
B9 was tested, and the “ELISA Signal-blank (100 nM Fab)” value [14] was 0.813.

B10: Fab VH5-51_IGHD5-18*01>3_IGHJ4*01 G100K/G104T G24T/S28R/G35V (H:KT TRV) & V3-4_IGLJ1*01 S96E (Fab, V domains shown)
VH: B6 VH with G24T, S28R, G35V
VL: B6 VL with A95G, S96E
notes: as for B8
With B10 the “ELISA Signal-blank (100 nM Fab)” value [14] was 0.439.
